# Results taken from patent publication US7657380.
# Target: T1, human CD30 (commercial, conjugated to digoxigenin) (human, UniProt P28908 19-379, limits assumed, conjugated to digoxigenin (DIG))
# T1 sequence (looked up): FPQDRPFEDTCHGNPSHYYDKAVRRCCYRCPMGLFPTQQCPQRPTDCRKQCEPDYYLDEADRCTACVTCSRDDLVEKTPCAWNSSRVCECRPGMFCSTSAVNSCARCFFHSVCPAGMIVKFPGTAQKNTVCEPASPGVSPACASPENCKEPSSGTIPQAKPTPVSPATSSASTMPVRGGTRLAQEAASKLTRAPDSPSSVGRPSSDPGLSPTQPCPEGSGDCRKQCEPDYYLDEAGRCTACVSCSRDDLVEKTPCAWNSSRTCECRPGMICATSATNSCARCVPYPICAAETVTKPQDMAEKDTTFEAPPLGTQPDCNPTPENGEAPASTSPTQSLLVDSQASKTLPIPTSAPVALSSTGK
# Test: AlphaScreen competition
row,Binder,Fold IC50 vs H3/L3
1,"AC10 H3/L3.15 (antibody, IgG1, name in Kabat numbering, V domains shown) VH: QIQLVQSGPEVKKPGASVKVSCKASGYTFTDYYITWVRQAPGQGLEWMGWIYPGSGNTKYNEKFQGRFVFSVDTSASTAYLQISSLKAEDTAVYFCANYGNYWFAYWGQGTLVTVSS VL: DIVLTQSPDSLAVSLGERATINCKASQSVDYDGDSYMNWYQQKPGQPPKVLIYAASNLESGIPARFSGSGSGTDFTLTINSLEAEDAATYYCQQSNEDPWTFGGGTKVEIK",0.63 fold
2,"AC10 H3/L3.24 (antibody, IgG1, name in Kabat numbering, V domains shown) VH: QIQLVQSGPEVKKPGASVKVSCKASGYTFTDYYITWVRQAPGQGLEWMGWIYPGSGNTKYNEKFQGRFVFSVDTSASTAYLQISSLKAEDTAVYFCANYGNYWFAYWGQGTLVTVSS VL: DIVLTQSPDSLAVSLGERATINCKASQSVDFDGDSDMNWYQQKPGQPPKVLIYAASNLESGIPARFSGSGSGTDFTLTINSLEAEDAATYYCQQSNEDPWTFGGGTKVEIK",0.46 fold
3,"AC10 H3/L3.40 (antibody, IgG1, name in Kabat numbering, V domains shown) VH: QIQLVQSGPEVKKPGASVKVSCKASGYTFTDYYITWVRQAPGQGLEWMGWIYPGSGNTKYNEKFQGRFVFSVDTSASTAYLQISSLKAEDTAVYFCANYGNYWFAYWGQGTLVTVSS VL: DIVLTQSPDSLAVSLGERATINCKASQSVDFDGDSYMNWYQQKPGQPPKVLIYAASNLQSGIPARFSGSGSGTDFTLTINSLEAEDAATYYCQQSNEDPWTFGGGTKVEIK",0.87 fold
4,"AC10 H3/L3.22 (antibody, IgG1, name in Kabat numbering, V domains shown) VH: QIQLVQSGPEVKKPGASVKVSCKASGYTFTDYYITWVRQAPGQGLEWMGWIYPGSGNTKYNEKFQGRFVFSVDTSASTAYLQISSLKAEDTAVYFCANYGNYWFAYWGQGTLVTVSS VL: DIVLTQSPDSLAVSLGERATINCKASQSVDFDGDTYMNWYQQKPGQPPKVLIYAASNLESGIPARFSGSGSGTDFTLTINSLEAEDAATYYCQQSNEDPWTFGGGTKVEIK",0.46 fold
5,"AC10 H3/L3.33 (antibody, IgG1, name in Kabat numbering, V domains shown) VH: QIQLVQSGPEVKKPGASVKVSCKASGYTFTDYYITWVRQAPGQGLEWMGWIYPGSGNTKYNEKFQGRFVFSVDTSASTAYLQISSLKAEDTAVYFCANYGNYWFAYWGQGTLVTVSS VL: DIVLTQSPDSLAVSLGERATINCKASQSVDFDGDSYMNWYQQKPGQPPKVLIYDASNLESGIPARFSGSGSGTDFTLTINSLEAEDAATYYCQQSNEDPWTFGGGTKVEIK",0.26 fold
6,"AC10 H3/L3.20 (antibody, IgG1, name in Kabat numbering, V domains shown) VH: QIQLVQSGPEVKKPGASVKVSCKASGYTFTDYYITWVRQAPGQGLEWMGWIYPGSGNTKYNEKFQGRFVFSVDTSASTAYLQISSLKAEDTAVYFCANYGNYWFAYWGQGTLVTVSS VL: DIVLTQSPDSLAVSLGERATINCKASQSVDFDGYSYMNWYQQKPGQPPKVLIYAASNLESGIPARFSGSGSGTDFTLTINSLEAEDAATYYCQQSNEDPWTFGGGTKVEIK",0.78 fold
7,"AC10 H3/L3.23 (antibody, IgG1, name in Kabat numbering, V domains shown) VH: QIQLVQSGPEVKKPGASVKVSCKASGYTFTDYYITWVRQAPGQGLEWMGWIYPGSGNTKYNEKFQGRFVFSVDTSASTAYLQISSLKAEDTAVYFCANYGNYWFAYWGQGTLVTVSS VL: DIVLTQSPDSLAVSLGERATINCKASQSVDFDGDNYMNWYQQKPGQPPKVLIYAASNLESGIPARFSGSGSGTDFTLTINSLEAEDAATYYCQQSNEDPWTFGGGTKVEIK",0.71 fold
8,"AC10 H3/L3.30 (antibody, IgG1, name in Kabat numbering, V domains shown) VH: QIQLVQSGPEVKKPGASVKVSCKASGYTFTDYYITWVRQAPGQGLEWMGWIYPGSGNTKYNEKFQGRFVFSVDTSASTAYLQISSLKAEDTAVYFCANYGNYWFAYWGQGTLVTVSS VL: DIVLTQSPDSLAVSLGERATINCKASQSVDFDGDSYMNWYQQKPGQPPKLLIYAASNLESGIPARFSGSGSGTDFTLTINSLEAEDAATYYCQQSNEDPWTFGGGTKVEIK",0.39 fold
9,"AC10 H3/L3.25 (antibody, IgG1, name in Kabat numbering, V domains shown) VH: QIQLVQSGPEVKKPGASVKVSCKASGYTFTDYYITWVRQAPGQGLEWMGWIYPGSGNTKYNEKFQGRFVFSVDTSASTAYLQISSLKAEDTAVYFCANYGNYWFAYWGQGTLVTVSS VL: DIVLTQSPDSLAVSLGERATINCKASQSVDFDGDSYLNWYQQKPGQPPKVLIYAASNLESGIPARFSGSGSGTDFTLTINSLEAEDAATYYCQQSNEDPWTFGGGTKVEIK",1.36 fold
10,"AC10 H3/L3.37 (antibody, IgG1, name in Kabat numbering, V domains shown) VH: QIQLVQSGPEVKKPGASVKVSCKASGYTFTDYYITWVRQAPGQGLEWMGWIYPGSGNTKYNEKFQGRFVFSVDTSASTAYLQISSLKAEDTAVYFCANYGNYWFAYWGQGTLVTVSS VL: DIVLTQSPDSLAVSLGERATINCKASQSVDFDGDSYMNWYQQKPGQPPKVLIYAASTLESGIPARFSGSGSGTDFTLTINSLEAEDAATYYCQQSNEDPWTFGGGTKVEIK",1.26 fold
11,"AC10 H3/L3.32 (antibody, IgG1, name in Kabat numbering, V domains shown) VH: QIQLVQSGPEVKKPGASVKVSCKASGYTFTDYYITWVRQAPGQGLEWMGWIYPGSGNTKYNEKFQGRFVFSVDTSASTAYLQISSLKAEDTAVYFCANYGNYWFAYWGQGTLVTVSS VL: DIVLTQSPDSLAVSLGERATINCKASQSVDFDGDSYMNWYQQKPGQPPKSLIYAASNLESGIPARFSGSGSGTDFTLTINSLEAEDAATYYCQQSNEDPWTFGGGTKVEIK",0.32 fold
12,"AC10 H3/L3.28 (antibody, IgG1, name in Kabat numbering, V domains shown) VH: QIQLVQSGPEVKKPGASVKVSCKASGYTFTDYYITWVRQAPGQGLEWMGWIYPGSGNTKYNEKFQGRFVFSVDTSASTAYLQISSLKAEDTAVYFCANYGNYWFAYWGQGTLVTVSS VL: DIVLTQSPDSLAVSLGERATINCKASQSVDFDGDSYMDWYQQKPGQPPKVLIYAASNLESGIPARFSGSGSGTDFTLTINSLEAEDAATYYCQQSNEDPWTFGGGTKVEIK",0.41 fold
13,"AC10 H3/L3.21 (antibody, IgG1, name in Kabat numbering, V domains shown) VH: QIQLVQSGPEVKKPGASVKVSCKASGYTFTDYYITWVRQAPGQGLEWMGWIYPGSGNTKYNEKFQGRFVFSVDTSASTAYLQISSLKAEDTAVYFCANYGNYWFAYWGQGTLVTVSS VL: DIVLTQSPDSLAVSLGERATINCKASQSVDFDGDDYMNWYQQKPGQPPKVLIYAASNLESGIPARFSGSGSGTDFTLTINSLEAEDAATYYCQQSNEDPWTFGGGTKVEIK",0.81 fold
14,"AC10 H3/L3.19 (antibody, IgG1, name in Kabat numbering, V domains shown) VH: QIQLVQSGPEVKKPGASVKVSCKASGYTFTDYYITWVRQAPGQGLEWMGWIYPGSGNTKYNEKFQGRFVFSVDTSASTAYLQISSLKAEDTAVYFCANYGNYWFAYWGQGTLVTVSS VL: DIVLTQSPDSLAVSLGERATINCKASQSVDFDGSSYMNWYQQKPGQPPKVLIYAASNLESGIPARFSGSGSGTDFTLTINSLEAEDAATYYCQQSNEDPWTFGGGTKVEIK",1.13 fold
15,"AC10 H3/L3.16 (antibody, IgG1, name in Kabat numbering, V domains shown) VH: QIQLVQSGPEVKKPGASVKVSCKASGYTFTDYYITWVRQAPGQGLEWMGWIYPGSGNTKYNEKFQGRFVFSVDTSASTAYLQISSLKAEDTAVYFCANYGNYWFAYWGQGTLVTVSS VL: DIVLTQSPDSLAVSLGERATINCKASQSVDFNGDSYMNWYQQKPGQPPKVLIYAASNLESGIPARFSGSGSGTDFTLTINSLEAEDAATYYCQQSNEDPWTFGGGTKVEIK",1.61 fold
16,"AC10 H3/L3.27 (antibody, IgG1, name in Kabat numbering, V domains shown) VH: QIQLVQSGPEVKKPGASVKVSCKASGYTFTDYYITWVRQAPGQGLEWMGWIYPGSGNTKYNEKFQGRFVFSVDTSASTAYLQISSLKAEDTAVYFCANYGNYWFAYWGQGTLVTVSS VL: DIVLTQSPDSLAVSLGERATINCKASQSVDFDGDSYMAWYQQKPGQPPKVLIYAASNLESGIPARFSGSGSGTDFTLTINSLEAEDAATYYCQQSNEDPWTFGGGTKVEIK",0.38 fold
17,"AC10 H3/L3.39 (antibody, IgG1, name in Kabat numbering, V domains shown) VH: QIQLVQSGPEVKKPGASVKVSCKASGYTFTDYYITWVRQAPGQGLEWMGWIYPGSGNTKYNEKFQGRFVFSVDTSASTAYLQISSLKAEDTAVYFCANYGNYWFAYWGQGTLVTVSS VL: DIVLTQSPDSLAVSLGERATINCKASQSVDFDGDSYMNWYQQKPGQPPKVLIYAASNLASGIPARFSGSGSGTDFTLTINSLEAEDAATYYCQQSNEDPWTFGGGTKVEIK",0.85 fold
18,"AC10 H3/L3.18 (antibody, IgG1, name in Kabat numbering, V domains shown) VH: QIQLVQSGPEVKKPGASVKVSCKASGYTFTDYYITWVRQAPGQGLEWMGWIYPGSGNTKYNEKFQGRFVFSVDTSASTAYLQISSLKAEDTAVYFCANYGNYWFAYWGQGTLVTVSS VL: DIVLTQSPDSLAVSLGERATINCKASQSVDFDGNSYMNWYQQKPGQPPKVLIYAASNLESGIPARFSGSGSGTDFTLTINSLEAEDAATYYCQQSNEDPWTFGGGTKVEIK",1.45 fold
19,"AC10 H3/L3.34 (antibody, IgG1, name in Kabat numbering, V domains shown) VH: QIQLVQSGPEVKKPGASVKVSCKASGYTFTDYYITWVRQAPGQGLEWMGWIYPGSGNTKYNEKFQGRFVFSVDTSASTAYLQISSLKAEDTAVYFCANYGNYWFAYWGQGTLVTVSS VL: DIVLTQSPDSLAVSLGERATINCKASQSVDFDGDSYMNWYQQKPGQPPKVLIYSASNLESGIPARFSGSGSGTDFTLTINSLEAEDAATYYCQQSNEDPWTFGGGTKVEIK",0.47 fold
20,"AC10 H3/L3.17 (antibody, IgG1, name in Kabat numbering, V domains shown) VH: QIQLVQSGPEVKKPGASVKVSCKASGYTFTDYYITWVRQAPGQGLEWMGWIYPGSGNTKYNEKFQGRFVFSVDTSASTAYLQISSLKAEDTAVYFCANYGNYWFAYWGQGTLVTVSS VL: DIVLTQSPDSLAVSLGERATINCKASQSVDFDGKSYMNWYQQKPGQPPKVLIYAASNLESGIPARFSGSGSGTDFTLTINSLEAEDAATYYCQQSNEDPWTFGGGTKVEIK",1.21 fold
21,"AC10 H3/L3.38 (antibody, IgG1, name in Kabat numbering, V domains shown) VH: QIQLVQSGPEVKKPGASVKVSCKASGYTFTDYYITWVRQAPGQGLEWMGWIYPGSGNTKYNEKFQGRFVFSVDTSASTAYLQISSLKAEDTAVYFCANYGNYWFAYWGQGTLVTVSS VL: DIVLTQSPDSLAVSLGERATINCKASQSVDFDGDSYMNWYQQKPGQPPKVLIYAASNRESGIPARFSGSGSGTDFTLTINSLEAEDAATYYCQQSNEDPWTFGGGTKVEIK",1.46 fold
